Publication PMC9482650, “Quantitative fragmentomics allow affinity mapping of interactomes” (Nature Communications, 2022)

T1: RADIL, Q96JH8
T1 sequence (Q96JH8 971-1071, limits assumed, looked up): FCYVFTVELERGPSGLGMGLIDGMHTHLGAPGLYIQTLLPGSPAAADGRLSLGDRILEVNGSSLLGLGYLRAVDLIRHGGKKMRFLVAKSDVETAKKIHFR

T2: MPP2, Q14168
T2 sequence (Q14168 180-250, limits assumed, looked up): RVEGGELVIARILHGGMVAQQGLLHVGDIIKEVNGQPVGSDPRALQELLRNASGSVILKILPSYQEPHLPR

T3: APBA2_2, Q99767
T3 sequence (Q99767 654-744, limits assumed, looked up): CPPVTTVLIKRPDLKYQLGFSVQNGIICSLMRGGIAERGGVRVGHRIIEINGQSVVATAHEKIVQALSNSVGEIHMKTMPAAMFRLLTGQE

T4: GRIP1_7, Q9Y3R0
T4 sequence (Q9Y3R0 999-1096, limits assumed, looked up): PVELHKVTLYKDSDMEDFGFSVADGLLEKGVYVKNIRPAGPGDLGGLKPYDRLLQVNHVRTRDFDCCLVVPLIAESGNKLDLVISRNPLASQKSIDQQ

T5: LIN7A, O14910
T5 sequence (O14910 103-200, limits assumed, looked up): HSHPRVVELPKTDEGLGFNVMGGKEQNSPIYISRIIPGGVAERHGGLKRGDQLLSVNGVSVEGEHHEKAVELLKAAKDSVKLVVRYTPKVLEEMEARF

T6: MPDZ_10, O75970
T6 sequence (O75970 1624-1722, limits assumed, looked up): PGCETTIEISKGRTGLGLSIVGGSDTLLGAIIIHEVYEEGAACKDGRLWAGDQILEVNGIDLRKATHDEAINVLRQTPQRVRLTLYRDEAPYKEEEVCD

T7: HTRA4, P83105
T7 sequence (P83105 378-476, limits assumed, looked up): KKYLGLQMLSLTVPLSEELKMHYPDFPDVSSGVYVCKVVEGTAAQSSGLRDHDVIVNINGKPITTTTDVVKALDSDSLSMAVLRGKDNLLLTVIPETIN

T8: NHERF3_4, Q5T2W1
T8 sequence (Q5T2W1 373-468, limits assumed, looked up): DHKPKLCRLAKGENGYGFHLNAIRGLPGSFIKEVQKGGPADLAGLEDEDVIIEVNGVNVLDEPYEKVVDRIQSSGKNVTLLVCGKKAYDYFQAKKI

T9: DFNB31_2, Q9P202
T9 sequence (Q9P202 274-371, limits assumed, looked up): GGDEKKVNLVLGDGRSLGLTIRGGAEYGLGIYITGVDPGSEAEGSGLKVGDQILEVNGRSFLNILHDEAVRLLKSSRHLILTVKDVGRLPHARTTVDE

T10: LNX2_2, Q8N448
T10 sequence (Q8N448 334-432, limits assumed, looked up): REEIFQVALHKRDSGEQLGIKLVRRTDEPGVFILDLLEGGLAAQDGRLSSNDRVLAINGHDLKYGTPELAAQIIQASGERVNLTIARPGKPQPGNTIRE

T11: PCLO, Q9Y6V0
T11 sequence (Q9Y6V0 4491-4600, limits assumed, looked up): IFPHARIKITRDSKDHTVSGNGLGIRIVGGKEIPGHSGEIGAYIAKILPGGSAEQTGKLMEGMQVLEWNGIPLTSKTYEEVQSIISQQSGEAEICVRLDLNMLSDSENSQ

T12: TX1BP3, O14907
T12 sequence (O14907 10-122, limits assumed, looked up): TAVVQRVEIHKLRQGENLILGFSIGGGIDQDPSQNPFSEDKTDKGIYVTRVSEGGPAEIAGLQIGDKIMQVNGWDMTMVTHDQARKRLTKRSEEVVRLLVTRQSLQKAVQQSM


How the values were obtained:
Assay in all cases: holdup assay
Parameters in all cases: key: below the threshold = too weak to quantify, mostly under pKd 3.1 to 4
Conditions in all cases: plain residues with an end cap or a label only (N-terminal biotin on a linker: ado-ado)
ARHGEF12, Q9NZN5-2 = target: ARHGEF12, Q9NZN5-2
RADIL, Q96JH8 = target: T1, RADIL, Q96JH8
FRMPD2_3, Q68DX3 = target: FRMPD2_3, Q68DX3
MAGI3_2, Q5TCQ9 = target: MAGI3_2, Q5TCQ9
LNX1_3, Q8TBB1 = target: LNX1_3, Q8TBB1
MPP2, Q14168 = target: T2, MPP2, Q14168
APBA2_2, Q99767 = target: T3, APBA2_2, Q99767
FRMPD2_2, Q68DX3 = target: FRMPD2_2, Q68DX3
GRIP1_7, Q9Y3R0 = target: T4, GRIP1_7, Q9Y3R0
LIN7A, O14910 = target: T5, LIN7A, O14910
MPDZ_10, O75970 = target: T6, MPDZ_10, O75970
Inadl_5, Q8NI35 = target: Inadl_5, Q8NI35
IL16_3, Q14005 = target: IL16_3, Q14005
HTRA4, P83105 = target: T7, HTRA4, P83105
NHERF3_4, Q5T2W1 = target: T8, NHERF3_4, Q5T2W1
DFNB31_2, Q9P202 = target: T9, DFNB31_2, Q9P202
Inadl_9, Q8NI35 = target: Inadl_9, Q8NI35
LNX2_2, Q8N448 = target: T10, LNX2_2, Q8N448
PCLO, Q9Y6V0 = target: T11, PCLO, Q9Y6V0
Inadl_10, Q8NI35 = target: Inadl_10, Q8NI35
Inadl_8, Q8NI35 = target: Inadl_8, Q8NI35
MAGI1_1, Q96QZ7 = target: MAGI1_1, Q96QZ7
MAGI1_2, Q96QZ7 = target: MAGI1_2, Q96QZ7
TX1BP3, O14907 = target: T12, TX1BP3, O14907
TJP2_1, Q9UDY2 = target: TJP2_1, Q9UDY2
TJP1_2, Q07157 = target: TJP1_2, Q07157
Chain of TJP1_2, Q07157 (Q07157 181-274): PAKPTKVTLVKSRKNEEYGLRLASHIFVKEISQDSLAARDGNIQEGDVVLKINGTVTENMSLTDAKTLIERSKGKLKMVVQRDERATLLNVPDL

Chain of MAGI1_2, Q96QZ7 (Q96QZ7 456-580): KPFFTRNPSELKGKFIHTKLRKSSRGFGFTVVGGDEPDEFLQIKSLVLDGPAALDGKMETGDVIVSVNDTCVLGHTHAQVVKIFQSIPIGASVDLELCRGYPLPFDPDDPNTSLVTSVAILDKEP
Chain of MAGI3_2, Q5TCQ9 (Q5TCQ9 398-503): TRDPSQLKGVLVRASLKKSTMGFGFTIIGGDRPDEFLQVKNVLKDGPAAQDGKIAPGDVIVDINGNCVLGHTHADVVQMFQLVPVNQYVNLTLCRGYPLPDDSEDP
Chain of FRMPD2_3, Q68DX3 (Q68DX3 1073-1166): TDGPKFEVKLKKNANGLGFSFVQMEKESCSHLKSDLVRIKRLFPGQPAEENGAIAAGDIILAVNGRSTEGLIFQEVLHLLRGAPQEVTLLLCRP
Chain of TJP2_1, Q9UDY2 (Q9UDY2 24-128): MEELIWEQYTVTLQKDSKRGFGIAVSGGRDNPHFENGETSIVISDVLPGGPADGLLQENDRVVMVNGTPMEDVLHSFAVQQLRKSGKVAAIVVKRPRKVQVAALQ
Chain of Inadl_8, Q8NI35 (Q8NI35 1425-1530): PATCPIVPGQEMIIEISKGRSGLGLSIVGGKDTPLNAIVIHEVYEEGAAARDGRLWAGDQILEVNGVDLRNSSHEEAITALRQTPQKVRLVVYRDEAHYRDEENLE
Chain of Inadl_9, Q8NI35 (Q8NI35 1530-1615): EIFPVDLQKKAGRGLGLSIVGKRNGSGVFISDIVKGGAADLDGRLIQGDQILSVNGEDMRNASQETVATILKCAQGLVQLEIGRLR
Chain of MAGI1_1, Q96QZ7 (Q96QZ7 1-106): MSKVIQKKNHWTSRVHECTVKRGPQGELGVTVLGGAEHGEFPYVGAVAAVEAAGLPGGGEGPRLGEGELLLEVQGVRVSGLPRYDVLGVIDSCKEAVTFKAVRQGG
Chain of FRMPD2_2, Q68DX3 (Q68DX3 944-1038): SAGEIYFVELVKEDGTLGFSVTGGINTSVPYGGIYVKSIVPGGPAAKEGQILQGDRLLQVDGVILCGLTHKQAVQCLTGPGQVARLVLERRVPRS
Chain of Inadl_5, Q8NI35 (Q8NI35 673-780): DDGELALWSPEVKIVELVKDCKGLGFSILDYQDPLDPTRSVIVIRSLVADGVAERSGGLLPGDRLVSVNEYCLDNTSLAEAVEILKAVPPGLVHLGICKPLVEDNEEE
Chain of ARHGEF12, Q9NZN5-2 (Q9NZN5 other isoform, or with tags, fused parts or gaps): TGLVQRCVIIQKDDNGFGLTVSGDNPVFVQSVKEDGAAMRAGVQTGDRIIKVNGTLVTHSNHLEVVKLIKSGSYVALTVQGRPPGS
Chain of Inadl_10, Q8NI35 (Q8NI35 1673-1763): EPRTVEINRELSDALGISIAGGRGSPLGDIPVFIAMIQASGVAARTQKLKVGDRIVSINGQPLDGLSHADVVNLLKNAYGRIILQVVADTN
Chain of IL16_3, Q14005 (Q14005 1107-1207): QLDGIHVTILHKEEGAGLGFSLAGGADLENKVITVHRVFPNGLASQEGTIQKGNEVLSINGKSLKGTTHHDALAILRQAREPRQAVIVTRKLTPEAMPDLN
Chain of LNX1_3, Q8TBB1 (Q8TBB1 500-596): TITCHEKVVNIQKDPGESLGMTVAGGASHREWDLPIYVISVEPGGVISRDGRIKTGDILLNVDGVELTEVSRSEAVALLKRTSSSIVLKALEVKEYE

pKd (ARHGEF12, Q9NZN5-2) | pKd (RADIL, Q96JH8) | pKd (FRMPD2_3, Q68DX3) | pKd (MAGI3_2, Q5TCQ9) | pKd (LNX1_3, Q8TBB1) | pKd (MPP2, Q14168) | pKd (APBA2_2, Q99767) | pKd (FRMPD2_2, Q68DX3) | pKd (GRIP1_7, Q9Y3R0) | pKd (LIN7A, O14910) | pKd (MPDZ_10, O75970) | pKd (Inadl_5, Q8NI35) | pKd (IL16_3, Q14005) | pKd (HTRA4, P83105) | pKd (NHERF3_4, Q5T2W1) | pKd (DFNB31_2, Q9P202) | pKd (Inadl_9, Q8NI35) | pKd (LNX2_2, Q8N448) | pKd (PCLO, Q9Y6V0) | pKd (Inadl_10, Q8NI35) | Binder | also measured
below the threshold | below the threshold | below the threshold | below the threshold | below the threshold | below the threshold | below the threshold | below the threshold | below the threshold | below the threshold | below the threshold | below the threshold | below the threshold | below the threshold | below the threshold | below the threshold | below the threshold | below the threshold | below the threshold | below the threshold | VKQYADVEGF [HNRNPK, P61978;P61978-2] | pKd (Inadl_8, Q8NI35): below the threshold; pKd (MAGI1_1, Q96QZ7): below the threshold; pKd (MAGI1_2, Q96QZ7): below the threshold; pKd (TX1BP3, O14907): 3.97; pKd (TJP2_1, Q9UDY2): below the threshold; pKd (TJP1_2, Q07157): below the threshold
4.87 | 4.14 | below the threshold | 5.31 | below the threshold | below the threshold | below the threshold | below the threshold | 3.53 | 3.52 | 3.95 | below the threshold | below the threshold | 3.49 | below the threshold | below the threshold | 3.63 | 5.24 | below the threshold | below the threshold | ATKDKKITTV [EXOC4, Q96A65] | pKd (Inadl_8, Q8NI35): 4.42; pKd (MAGI1_1, Q96QZ7): 3.61; pKd (MAGI1_2, Q96QZ7): 4.91; pKd (TX1BP3, O14907): 3.91; pKd (TJP2_1, Q9UDY2): 3.87; pKd (TJP1_2, Q07157): 3.73
4.63 | below the threshold | below the threshold | 5.01 | below the threshold | below the threshold | below the threshold | 3.7 | below the threshold | below the threshold | below the threshold | below the threshold | below the threshold | below the threshold | 4.27 | below the threshold | 3.83 | 4.16 | below the threshold | below the threshold | FHSIKQSTAV [CRHR1, P34998] | pKd (Inadl_8, Q8NI35): 3.87; pKd (MAGI1_1, Q96QZ7): below the threshold; pKd (MAGI1_2, Q96QZ7): 5.05; pKd (TX1BP3, O14907): 4.11; pKd (TJP2_1, Q9UDY2): 3.6; pKd (TJP1_2, Q07157): below the threshold
